Tests used:
purified αVβ3 integrin [1] = molecular target: purified αVβ3 integrin (UniProt P06756); assay: [125I]-T4 radioligand displacement on purified αVβ3, native gel band intensity; SC7312 at 8 µg/ml
purified αVβ3 integrin [2] = molecular target: purified αVβ3 integrin (UniProt P06756); assay: [125I]-T4 radioligand displacement on purified αVβ3, native gel band intensity; SC7312 at 8 µg/ml (figure legend; Example 17 prints 59%)
purified αVβ3 integrin [3] = molecular target: purified αVβ3 integrin (UniProt P06756); assay: [125I]-T4 radioligand displacement on purified αVβ3, native gel band intensity; SC7312 at 1 µg/ml
purified αVβ3 integrin [4] = molecular target: purified αVβ3 integrin (UniProt P06756); assay: [125I]-T4 radioligand displacement on purified αVβ3, native gel band intensity; SC7312 at 2 µg/ml
purified αVβ3 integrin [5] = molecular target: purified αVβ3 integrin (UniProt P06756); assay: [125I]-T4 radioligand displacement on purified αVβ3, native gel band intensity; SC7312 at 4 µg/ml
purified αVβ3 integrin [6] = molecular target: purified αVβ3 integrin (UniProt P06756); assay: [125I]-T4 radioligand displacement on purified αVβ3, native gel band intensity; LM609 at 2 µg/ml
purified αVβ3 integrin [7] = molecular target: purified αVβ3 integrin (UniProt P06756); assay: [125I]-T4 radioligand displacement on purified αVβ3, native gel band intensity; LM609 at 4 µg/ml
purified αVβ3 integrin [8] = molecular target: purified αVβ3 integrin (UniProt P06756); assay: [125I]-T4 radioligand displacement on purified αVβ3, native gel band intensity; LM609 at 8 µg/ml
purified αVβ3 integrin [9] = molecular target: purified αVβ3 integrin (UniProt P06756); assay: [125I]-T4 radioligand displacement on 2 µg purified αVβ3, native gel band intensity; LM609 at 1 µg/ml

Chain of UniProt P06756 (P06756 31-1048, form in doubt, chain 1 of 2): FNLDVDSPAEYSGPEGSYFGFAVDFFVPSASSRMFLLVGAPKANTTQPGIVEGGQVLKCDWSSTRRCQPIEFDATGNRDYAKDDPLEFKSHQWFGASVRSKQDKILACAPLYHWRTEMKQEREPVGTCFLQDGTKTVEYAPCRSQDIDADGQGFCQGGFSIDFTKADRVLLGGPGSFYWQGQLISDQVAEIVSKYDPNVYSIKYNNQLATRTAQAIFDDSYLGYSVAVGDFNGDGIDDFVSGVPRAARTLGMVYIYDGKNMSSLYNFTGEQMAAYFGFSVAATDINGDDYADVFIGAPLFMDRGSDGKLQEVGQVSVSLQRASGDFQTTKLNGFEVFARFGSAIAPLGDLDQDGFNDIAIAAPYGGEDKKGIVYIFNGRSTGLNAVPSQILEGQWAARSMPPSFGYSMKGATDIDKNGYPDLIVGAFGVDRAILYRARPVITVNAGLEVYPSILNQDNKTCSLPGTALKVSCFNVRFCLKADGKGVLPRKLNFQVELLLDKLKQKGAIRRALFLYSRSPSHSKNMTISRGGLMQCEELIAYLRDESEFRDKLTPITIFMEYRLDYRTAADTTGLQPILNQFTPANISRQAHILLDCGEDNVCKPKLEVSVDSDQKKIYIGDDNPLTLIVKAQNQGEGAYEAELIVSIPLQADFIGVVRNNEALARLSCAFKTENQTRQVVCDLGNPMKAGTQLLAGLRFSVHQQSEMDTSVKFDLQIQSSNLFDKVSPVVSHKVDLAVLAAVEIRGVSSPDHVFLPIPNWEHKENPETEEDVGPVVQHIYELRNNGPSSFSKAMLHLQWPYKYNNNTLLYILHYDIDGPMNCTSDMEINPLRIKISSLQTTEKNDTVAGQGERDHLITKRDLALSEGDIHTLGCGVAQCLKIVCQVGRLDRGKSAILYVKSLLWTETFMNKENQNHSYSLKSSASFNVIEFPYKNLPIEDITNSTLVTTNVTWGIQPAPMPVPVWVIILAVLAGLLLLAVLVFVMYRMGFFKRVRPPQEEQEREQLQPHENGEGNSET
Chain of UniProt P06756 (P05106 27-788, form in doubt, chain 2 of 2, further chain): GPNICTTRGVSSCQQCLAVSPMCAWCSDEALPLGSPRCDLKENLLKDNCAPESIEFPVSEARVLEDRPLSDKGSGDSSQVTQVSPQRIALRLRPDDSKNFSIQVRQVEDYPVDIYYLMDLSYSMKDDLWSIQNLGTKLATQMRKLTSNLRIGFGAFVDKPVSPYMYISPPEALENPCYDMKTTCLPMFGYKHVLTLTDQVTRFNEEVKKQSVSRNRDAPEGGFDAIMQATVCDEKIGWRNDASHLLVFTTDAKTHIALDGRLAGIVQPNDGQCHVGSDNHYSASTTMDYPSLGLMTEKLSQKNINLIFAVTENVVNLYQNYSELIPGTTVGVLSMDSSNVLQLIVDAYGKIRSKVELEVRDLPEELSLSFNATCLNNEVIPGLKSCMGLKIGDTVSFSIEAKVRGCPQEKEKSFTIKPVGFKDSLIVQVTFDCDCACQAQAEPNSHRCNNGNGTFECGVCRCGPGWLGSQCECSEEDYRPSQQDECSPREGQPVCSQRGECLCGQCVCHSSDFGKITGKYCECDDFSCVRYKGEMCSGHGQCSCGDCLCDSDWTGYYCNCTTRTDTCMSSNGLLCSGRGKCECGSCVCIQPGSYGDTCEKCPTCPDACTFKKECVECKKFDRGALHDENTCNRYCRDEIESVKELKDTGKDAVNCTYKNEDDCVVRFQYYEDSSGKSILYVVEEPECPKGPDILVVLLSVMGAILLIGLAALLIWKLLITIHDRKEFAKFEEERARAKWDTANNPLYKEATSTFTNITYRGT

Substance | percent reduction of T4 binding to αVβ3 (purified αVβ3 integrin [1]) [%] | percent reduction of T4 binding to αVβ3 (purified αVβ3 integrin [2]) [%] | percent reduction of T4 binding to αVβ3 (purified αVβ3 integrin [3]) [%] | percent reduction of T4 binding to αVβ3 (purified αVβ3 integrin [4]) [%] | percent reduction of T4 binding to αVβ3 (purified αVβ3 integrin [5]) [%] | percent reduction of [125I]T4-αVβ3 band intensity (purified αVβ3 integrin [6]) [%] | percent reduction of [125I]T4-αVβ3 band intensity (purified αVβ3 integrin [7]) [%] | percent reduction of [125I]T4-αVβ3 band intensity (purified αVβ3 integrin [8]) [%] | percent reduction of [125I]T4-αVβ3 complex formation (purified αVβ3 integrin [9]) [%]
monoclonal antibody SC7312 to αVβ3 | 59 | 58 | 20 | 46 | 47 |  |  |  | 
monoclonal antibody LM609 to αVβ3 |  |  |  |  |  | 64 | 63 | 81 | 52

Source: patent publication US9579300
